Experimental data from PMC3962013 (Cell, 2014).
Where a chain is given by its changes, count along the chain named. Blank lines part the entries; values can stand above or below the binder they belong to.

How the values were obtained:
[1] = biological target: T1, C. elegans SYG-2 ectodomain (C. elegans, UniProt Q9U3P2 20-1084); assay: ITC + SPR
T1 sequence (looked up): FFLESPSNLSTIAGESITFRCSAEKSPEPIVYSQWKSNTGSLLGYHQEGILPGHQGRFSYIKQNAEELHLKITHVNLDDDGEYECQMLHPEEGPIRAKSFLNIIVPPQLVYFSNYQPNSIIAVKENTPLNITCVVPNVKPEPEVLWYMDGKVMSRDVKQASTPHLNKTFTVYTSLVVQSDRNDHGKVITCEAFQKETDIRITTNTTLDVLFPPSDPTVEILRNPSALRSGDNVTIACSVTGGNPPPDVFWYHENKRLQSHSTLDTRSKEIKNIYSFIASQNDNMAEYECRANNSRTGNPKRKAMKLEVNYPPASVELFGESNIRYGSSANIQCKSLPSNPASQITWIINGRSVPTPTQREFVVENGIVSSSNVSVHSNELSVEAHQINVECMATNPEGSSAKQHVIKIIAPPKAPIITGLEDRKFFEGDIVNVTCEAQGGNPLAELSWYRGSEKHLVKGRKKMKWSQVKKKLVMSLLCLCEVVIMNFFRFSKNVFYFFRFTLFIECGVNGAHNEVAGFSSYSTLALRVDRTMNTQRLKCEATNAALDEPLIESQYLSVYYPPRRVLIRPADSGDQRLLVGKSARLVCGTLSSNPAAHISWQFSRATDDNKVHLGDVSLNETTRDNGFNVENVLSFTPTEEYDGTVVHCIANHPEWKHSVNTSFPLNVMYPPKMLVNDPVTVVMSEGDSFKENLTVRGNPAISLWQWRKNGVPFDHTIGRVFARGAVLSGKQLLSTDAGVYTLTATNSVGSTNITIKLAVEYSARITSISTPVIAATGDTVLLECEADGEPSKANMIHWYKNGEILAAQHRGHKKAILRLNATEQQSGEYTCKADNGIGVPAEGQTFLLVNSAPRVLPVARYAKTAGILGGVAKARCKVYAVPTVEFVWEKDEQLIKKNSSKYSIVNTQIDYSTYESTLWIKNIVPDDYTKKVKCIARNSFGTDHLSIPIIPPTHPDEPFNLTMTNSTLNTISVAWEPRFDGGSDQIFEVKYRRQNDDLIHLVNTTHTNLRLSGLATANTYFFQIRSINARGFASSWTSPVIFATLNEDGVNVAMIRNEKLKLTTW

[2] = biological target: wild type SYG-2 (SPR series with mutants, construct not stated) (C. elegans); assay: SPR

Kd [1]: ~600 nM
B1: C. elegans SYG-1 ectodomain (domain or fragment, UniProt B1Q236 19-551, looked up)
chain: QQLQQRIVEAPKDTLAAVGETAILTCRVEHQQGPVQWMKDDFGLGTDRDKPLPGNKRYRMVGSAANGEYNLEISNVTLFDDDDFACQISESDHAKAVVSSKAKLTVLVRPTPPKIVKSHHSLKAIAGDPITQSCLSRKGKPPPTIGWAIASDEHGKHIVSWLGESRSKFGGIHAKPEISQETVIAHVNETTQVEEGGNNSREDSSIYSIMSNLSFIPRPEDDHKYLICISQHMTFPNKIEVDSVKLSLRYAPQINLTVASKLPLRENGSALLACNVNAKPLDNVKISWYKGNQKLRETGDTLTFETLKMEDHNRDIFCEATNEIGTTRGSIKLNVAFGARIMSTSQDKEVNEGDNAFFHCATLANPAPAIFWTRGDSDEIIGHGENLTLENVRTWQQGNYNCTATVEGFRKQILSHYLHIRGPPTVSMKDEVSASLDEATEIICEISGRPKTNNVRWTVNGKEINFNNGRITVHQYPKPYGKESILKIKDLKEEDFGVYNCSANNGLGFDNRGTLLKKRNILDWIVITAKFDR

fold weaker affinity than wild-type SYG-1 [2]: 7 fold
B2: SYG-1 Q54 mutant (domain or fragment)
chain: B1 chain with Q36A
